Paper PMC10256718

Target: Quinol-dependent nitric oxide reductase from Alcaligenes xylosoxidans (His-tagged AxqNOR-BRIL) (Alcaligenes xylosoxidans)
Test: cryo-EM structure; single-particle cryoEM, 2.2 Å, refined in C2 symmetry; sample at 3 mg/mL in Tris-HCl buffer pH 7.0, 150 mM NaCl, 0.05% DTM; dimer

stoichiometry N: 2
Substance: Quinol-dependent nitric oxide reductase from Alcaligenes xylosoxidans (His-tagged AxqNOR-BRIL) (enzyme)
